Results taken from patent US20170052184A1 (published 2017).

B1: HCV 208B-556 (antibody, V domains shown)
VH: QLQQSGPVLVKPGASVMISCKTSGYTFTENAMHWVKQSHGKSLEWIGGVNPNNGDTIFNQKFKGKATLTVDKSSSTAFMEFRSLTSEESTVYYCVRRELDFFDYWGQGTSVTVSS
VL: DIVLTQSPASLAVSLGQRATISCRASQSVSTSRYSYMHWYQQKPGQPPKLLIKYASNLESGVPARFSGSGSGTDFTLNIHPVAEEDTATYYCQHSWEFPFTFGSGTKLEIKR
B2: HCV 208A-134 (antibody, V domains shown)
VH: QGQMQQSGAELAKPGASVKLSCKTSGFTFSSSYISWLKQKPGQSLEWIAWIYAGTGNTNYNQKFTDKAQLTVDTSSSTAYMQLSSLTTEDSAIYYCAISGTGFTYWGQGTLVTVSA
VL: EVLMTQSPLSLPVSLGDQASISCRSSQSLEHTNGNTYLEWFLQRPGQPPKLLIYKVSSRFSGVPDRFSGSGSGTDFTLKISRVEAEDLGVYYCFQGSHVPFTFGSGTKLAIKR
B3: HCV 208A-207 (antibody, V domains shown)
VH: QGQLQQPGAEFVKPGASLKLSCRASGYTFTSYWIHWVKQRPGQGLEWIGEIDPSDSYINQNQKFRGKATLTVDKSSSTAYMELSGLTSEDSAVYYCARHYYGVLDSWGQGTTLTVSS
VL: DIVLTQSPATLSVTPGDRVSLSCRASQRIYNYLHWYQQKSHESPRLLTKYASQSISGIPSRFSGSGSGTDFILTINSVETEDFGMYFCQQSNSWPLTFGAGTKLELRR
B4: HCV 208B-560 (antibody, V domains shown)
VH: EVQLQQSGPELEKPGASVKISCKTSGYTFTEYAMHWVKQSHGMSLEWIGGINPSNGNAIYNQIFKDKATLTVDRSSSTAYMGLRSLTFGDSGVYFCVRRQLDFFDYWGQGASLTVSS
VL: DIVVTQSPASLAVSLGQRATISCRASQSVSTSRYSYLHWYQQKPGQPPKLLIKYASNLESGVPARFSGSGSGTDFTLNIHPVGEEDTATYYCQHSWEFPFTFGSGTKLEIKR
B5: HCV 208A-222 (antibody, V domains shown)
VH: EVQLQQSGPELEKPGASVRISCKTSGYTFTEYAMHWVKQSHGKSLEWIGGINPNNGNAIYNQIFKDKATLTVDRSSSTAYMGLRSLTFGDSGVYFCVRRQLDYFDYWGQGASLTVSS
VL: DIVVTQSPASLAVSLGQRATISCRASQSVSTSRYSYLHWYQQKPGQPPKLLIKYASNLESGVPARFSGSGSGTDFTLNIHPVGEEDTATYYCQHSWEFPFTFGSGTKLEIKR
B6: HCV 208A-605 (antibody, V domains shown)
VH: EVQLQQSGPELEKPGASVKISCKTSGYTFTEYAIHWVKQSHGMSLEWIGGINPSNGNAIYNQIFKDKATLTVDRSSSTAYMGLRSLTFGDSGVYFCVRRQLDFFDYWGQGASLTVSS
VL: DIVVTQSPASLAVSLGQRATISCRASQSVSTSRYSYLHWYQQKPGQPPKLLIKYASNLESGVPARFSGSGSGTDFTLNIHPVGEEDTATYYCQHSWEFPFTFGSGTKLEIKR
B7: HCV 208A-352 (antibody, V domains shown)
VH: QGQMQQSGAELVKPGASVKLSCKTSGFTFSSSFISWLKQKPGQSLEWIAWIYAGTGNTNYNQKFTDKAQLTVDTSSSTAYMQFSSLTTEDSAIYYCAISGTGFTYWGQGTLVTVSA
VL: DVLMAQTPLSLPVTLGDQASISCRSSQSLVHSNGNTYLEWFLQKPGQSPKLLIYNVSNRFSGVPDRFSGSGSGTDFTLKISRVEAEDLGVYYCFQGSHVPLTFGSGTKLEIKR
B8: HCV 208B-281 (antibody, V domains shown)
VH: QGQLQQSGAELVKPGASVKLSCKTSGFTFSSSYISWLKQRPGQSLEWIAWIYAGTGGTNYNQKFTDKAQLTVDTSSSTAYMQFSSLTTEDSAIYYCAISGTGFIYWGQGTLVTVSA
VL: DVLMTQTPLSLPVSLGDQASISCRSSQSLVHNNGNTYLEWFLQKPGQSPKLLIYKVSNRFSGVPDRFSGSGSGTDFTLKISRVEAEDLGVYYCFQGSHVPFTFGSGTKLEIKR
B9: HCV 208A-557 (antibody, V domains shown)
VH: QGQMQQSGAELVKPGASVKLSCKTSGFTFSSSYISWLKQKPGQSLEWIAWIYAGTGNTNYNQKFTDKAQLTVDTSSSTAYMQLSSLTTEDSAIYYCAISGTGFTYWGQGTLVTVSA
VL: DIALTQSPASLAVSLGQRATISCRASQSVSTSRYSYMHWYQQKPGQPPELLIKYASNLESGVPARFSGSGSGTDFTLNIHPVGEEDTATYYCQHSWDFPFTFGSGTKLEIKR
B10: HCV 208A-638 (antibody, V domains shown)
VH: QGQLQQPGAEFVKPGASLKLSCRASGYTFTSYWIHWVKQRPGQGLEWIGEVDPSDSYINQNEKFRGKATLTVDKSSSTAYMQLGSLTSEDSAVYYCARHYYGVLDSWGQGTALTVSS
VL: QIVLTQSPTIMSASLGERVTMTCTASSSVSSSYLHWFQQKPGSSPKLWIYSTSNLASGVPPRFSGSGSGTSYSLSISSVEAEDVATYYCLQFHRSPWTFGGGAKLEIKR
B11: HCV 208A-830 (antibody, V domains shown)
VH: EVRLQQPGPEVEKPGASVKISCKTSGYTFTEYAIHWVKQSHGESLEWIGGINPSNGDPIYNQIFKDKATLTVDRSSNTAYMGLRSLTVGDSGVYFCVRRQLDYFDFWGQGASLTVSS
VL: DIVLTQSPASLAVSLGQRATISCRSSQSVSTSRYSYLHWYQQKPGQPPKLLIKYASNLESGVPARFSGSGSGTDFTLNIHPVGEEDPATYYCQHSWEFPFTFGSGTKLEIKR
B12: HCV 208A-877 (antibody, V domains shown)
VH: QLQQSGPELVKPGASVKISCKTSGYTFTENAMHWVKQSRGKSLEWIGGVNPNNGDTVYTQKFKGKATLTVAKSSSTAYMELRTMTCEESTVYYCASREPDFFDYWGQGSSVTVSS
VL: QIVLTQSPAIMSVSPGEKVSMTCSASSSVTYMHWYQQKSGTSPKRWIYDTSELASGVPARFSGSGSGTTYSLTISSMEAEDAATYYCQQWSNKPLTFGAGTKLELKR
B13: HCV 208B-1024 (antibody, V domains shown)
VH: EVQLVESGGDLVKPGGSLKLSCAASGFTFSNYGMSWVRQTPDKRLEWVATISSGGSYSYYPDSVKGRFTISRDNAKNILYLQMSSLKSEDTAMYYCASLYYGYGDYWGQGTAFTVSS
VL: DVLMTQTPLSLPVSLGDQASISCRSSQSIVHSNGNTYLEWYLQKLGQSPKLLIYRVSNRFSGVPDRFSGSGSGTDFTLKISRVEAEDLGVYYCFQGSHVPWTFGGGTKLEIKR
B14: HCV 208B-1096 (antibody, V domains shown)
VH: QVQLQQSGAGLAKPGASVKMSCKASGYTFTANKMHWAKQRPGQGLEWIGYIDPSSGYTEYNHKIQYKATLTADTSSSTAYMQLSTLTFEDSAVYYCTNFAYWGQGTLVTVSA
VL: DIVMTQTPLTLSVTIGQPASISCKSSQSLLFTNGKTYLNWFLQRPGQSPKRLIYLLSKLDSGVPDRFSGSGSGTDFTLKISRVEAEDLGVYYCLQSTYFPLTFGAGTKLELKR

Assays:
HCV Core1-169 [1] = target: T1, HCV Core1-169 (hepatitis C virus (HCV-1), UniProt P26664 1-169); test: SPR sandwich, capture mAb C11-3
T1 sequence: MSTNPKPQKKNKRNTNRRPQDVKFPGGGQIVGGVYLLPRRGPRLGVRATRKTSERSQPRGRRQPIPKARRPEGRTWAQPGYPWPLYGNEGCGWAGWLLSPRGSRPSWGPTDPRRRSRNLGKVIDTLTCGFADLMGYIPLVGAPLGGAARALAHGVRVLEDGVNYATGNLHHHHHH

HCV Core1-169 [2] = target: T1, HCV Core1-169; test: SPR sandwich, capture mAb C11-7
HCV Core1-169 [3] = target: T1, HCV Core1-169; test: SPR sandwich, capture mAb C11-9
HCV Core1-169 [4] = target: T1, HCV Core1-169; test: SPR sandwich, capture mAb C11-14
[5] = target: T2, HCV Core 134-171-TT Peptide (hepatitis C virus (HCV-1 numbering) …); test: SPR, captured mAb, peptide analyte
T2 construct: also called ALRZ-9 peptide

| Binder | expected percent binding (HCV Core1-169 [1]) [%] | expected percent binding (HCV Core1-169 [2]) [%] | expected percent binding (HCV Core1-169 [3]) [%] | expected percent binding (HCV Core1-169 [4]) [%] | Kd [5] [nM] | koff [5] [s⁻¹] | kon [5] [M⁻¹ s⁻¹] |
| --- | --- | --- | --- | --- | --- | --- | --- |
| B1 | 11.5 | 15.3 | 8.3 | 12.7 | 0.4 | 0.0006 | 1.5e+06 |
| B2 | ≤ 1 | ≤ 1 | ≤ 1 | ≤ 1 | 2.1 | 3.8e-05 | 18000 |
| B3 | ≤ 1 | ≤ 1 | ≤ 1 | ≤ 1 | < 0.032 | < 1e-05 | 310000 |
| B4 | 10.6 | 15.5 | 8.3 | 12 | 0.23 | 0.00026 | 1.1e+06 |
| B5 | 15.6 | 18.8 | 10.7 | 15 | 0.31 | 0.00035 | 1.1e+06 |
| B6 | 15.9 | 19.3 | 11.9 | 15.8 | 0.43 | 0.00037 | 870000 |
| B7 | ≤ 1 | ≤ 1 | ≤ 1 | ≤ 1 | 0.52 | 5.4e-05 | 100000 |
| B8 | ≤ 1 | ≤ 1 | ≤ 1 | ≤ 1 | 96 | 0.00025 | 2200 |
| B9 | 17.7 | 21.4 | 13.3 | 17.6 | 0.091 | 0.00021 | 2.4e+06 |
| B10 | 14.1 | 16.9 | 9.2 | 13.3 | 0.2 | 0.00053 | 2.7e+06 |
| B11 | 11.9 | 14.7 | 7.9 | 11.7 | 0.16 | 0.00054 | 3.4e+06 |
| B12 | 9.4 | 12.1 | 5.9 | 10.7 | 2.2 | 0.0024 | 1.1e+06 |
| B13 | 10.9 | 14.3 | 7.1 | 12.2 | 15 | 0.014 | 1e+06 |
| B14 | 15.1 | 16.9 | 11.4 | 16.3 | 0.46 | 0.0006 | 1.3e+06 |
